From the supplement of paper PMC9170038 come the findings set out here.

This data set has as its system MS2 coat protein. Nature of the data set: apparent KD of MS2 coat protein; designed switch direction (-1 OFF switch, 1 ON switch): -1; higher = weaker reporter binding. In a few lines:
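The buffer was Tris-HCl pH 7.5 with KCl, MgCl2, BSA, DTT, tRNA and Tween-20. In it, SNAP-549-labelled MS2 coat protein was titrated in doubling steps from 0.7 or 1.5 nM to 3 µM over chip-bound RNA switches transcribed by stalled E. coli RNA polymerase on Illumina chips. Apparent KD is the per-design median over clusters of curve fits to normalised fluorescence.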

Where [1] appears, read: Eterna round: R95, input ligand: microRNA oligo, concentration not stated.
Setting [2] is: Eterna round: R95, input ligand: FMN 200 uM.
[3] abbreviates: Eterna round: R95, input ligand: none.
[4] abbreviates: input ligand: microRNA oligo, concentration not stated.

With “GUACUGACAGGAUAUACAUGAGGAUCACCCAUGUGCCCUUAAAGAUGCAAAGCAUCUAGUAGAAGGGUCUGUAC [Omei Ex3 Model Bachelor's Dilema v23] (Eterna round: R97, puzzle: Exclusion 3)”, the “apparent KD of MS2 coat protein” value was 66.1 nM (input ligand: FMN 200 uM) and 33.4 nM (input ligand: none).
Consider “CCGAGCAAGGUGAGGAUAUUAAGAGCUACAGAGCAUGAGAAGGCACAUGAGGAUCACCCAUGUUACUACAGGGA [Eternabot (L1) Solution 66] (Eterna round: R97, puzzle: Brourd's mod of Exclusion 4)”, for which the “apparent KD of MS2 coat protein” value is 54.9 nM (input ligand: FMN 200 uM) and 54 nM (input ligand: none).
Consider “CAGUACUGAGGAUAUACAUGAGGAUCACCCAUGUGUUCCUGCUAGGAUACUAGCAAGGGUAGAAGGCAGUACUG [Mat - Exclusion 3 - Eli Mod - D4] (Eterna round: R97, puzzle: Exclusion 3)”, for which the “apparent KD of MS2 coat protein” value is, setting by setting: (input ligand: FMN 200 uM) 59.4 nM; (input ligand: none) 19.7 nM.
The matching figures for “AACCAGCGAGGAUAUUGUCGGUACAACAUGAGGAUCACCCAUGUCACGUGAUCUUCCCAACAAGAAGGUGCACUAC [Axeedesza] (Eterna round: R97, puzzle: Exclusion 5)”: 324 nM and 272 nM.
Turning to “UUUUAACAUGAGGAUCACCCAUGUGAGGAUAUCGAAAUUUAUAUUUAUAUUAAUUUUUCGAGAAGGCACAUUUU [JMF 89] (puzzle: Exclusion 1)”, the “apparent KD of MS2 coat protein” value under setting [1] was 177 nM.
For “UGUUGUUCAGGAUAUGAUGUAUAAUACAUGAGGAUCACCCAUGUAGAUCCUGAAUUAACAUCAGAAGGGAAUAUUG [salish99_ex5_r4_101] (Eterna round: R97, puzzle: Exclusion 5)”, the “apparent KD of MS2 coat protein” value is, setting by setting: (input ligand: FMN 200 uM) 19 nM; (input ligand: none) 17 nM.
For the sequence “GAAAACGAAGAGGAUAUUUGAUAUCAUAGCUUCAAAGAAGGCUUCACAUGAGGAUCACCCAUGUGAUCUUCAAA [jl-ex6-4.06 ViennaUCT mod] (Eterna round: R97, puzzle: Exclusion 6)”, the “apparent KD of MS2 coat protein” value runs as follows: (input ligand: FMN 200 uM) 95.8 nM; (input ligand: none) 22.7 nM.
Turning to “CCAUCGAGUGUGAGGAUAUGCUGGUCAAUAGAUCAGCAGAAGGCACAUGAGGAUCACCCAUGUGGAGACGGUGG [Mat - Exclusion 4 - JL Mod - D79] (puzzle: Brourd's mod of Exclusion 4)”, the “apparent KD of MS2 coat protein” value by setting is: under setting [2], 333 nM; under setting [1], 44.8 nM; under setting [3], 70.6 nM.
On to “CUCCAUACAGGAUAUACAGGCGGUGGAGCCGUAUGAUCAACACAUGAGGAUCACCCAUGUAGAAGGGUGUGUAC [Eternabot (L2) Solution 25] (Eterna round: R97, puzzle: Exclusion 2)”, for which the “apparent KD of MS2 coat protein” value (input ligand: FMN 200 uM) was found to be 436 nM and the “apparent KD of MS2 coat protein” value (input ligand: none) came to 642 nM.
On to “UGUAGAUCUACGCUUGCGUGGAUCUGCUUAGCAAGUGAUACAUGAGGAUCACCCAUGUCCUCAUUUGCUCGUCUUAU [JL turnoff v2 99.01] (puzzle: Sensor v3, turn-off variant 2)”, for which the “apparent KD of MS2 coat protein” value by setting is: under setting [2], 15.7 nM; under setting [1], 212 nM; under setting [3], 14 nM.
On to “AGCUGUGAGCGAGGAUAUCUGCUGUUUUCGGUCGGAGAAGGCGCGGACAGAACAUGAGGAUCACCCAUGUGUAUGGGCGGCCUC [Xexeenve] (Eterna round: R96, puzzle: Exclusion NG 1)”, for which the “apparent KD of MS2 coat protein” value is, setting by setting: (input ligand: FMN 200 uM) 119 nM; under setting [4], 44.5 nM; (input ligand: none) 73.7 nM.
Consider “UUUUAACAUGAGGAUCACCCAUGUGAGGAUAUCGAAAUUUAUAUUAAUAUUUUUAUUACGAGAAGGCACAUUUU [JMF 74] (puzzle: Exclusion 1)”, for which the “apparent KD of MS2 coat protein” value under setting [1] is 70.5 nM.
Consider “CUGAGGUAGCGGUCCUAUGACAUGAGGAUCACCCAUGUACCUUGCUUUGAGCUUAUUGCUCGUCUUAUGAUUCUCGG [Mat - Sensor v3 - turn-off var 1 - JL Mod - D41] (puzzle: Sensor v3, turn-off variant 1)”, for which the “apparent KD of MS2 coat protein” value under setting [2] amounted to 399 nM, the “apparent KD of MS2 coat protein” value under setting [1] came out at 299 nM and the “apparent KD of MS2 coat protein” value under setting [3] is 460 nM.
For the sequence “UGCAUGUGAGGAUAUGUGUACUGUCUUUUGUUUAGAUGUACACAGAAGGCACAUGAGGAUCACCCAUGUAGUAC [Ex4 - 3 - 34] (puzzle: Exclusion 4)”, the “apparent KD of MS2 coat protein” value under setting [1] came out at 59.1 nM.
“UGUACUAUGCGAGCUGACUUGCGUAGUGCAGCAGGUGUAACAUGAGGAUCACCCAUGUCCUCAUUUGCUCGUCUUAU [SL-sv3-2.05 JL mod] (puzzle: Sensor v3, turn-off variant 2)”: the “apparent KD of MS2 coat protein” value under setting [2] was found to be 347 nM, the “apparent KD of MS2 coat protein” value under setting [1] was 297 nM and the “apparent KD of MS2 coat protein” value under setting [3] was 414 nM.
For “GUUAGACAUGAGGAUCACCCAUGUGAGGAUAUGAUGCGAAUAAAGAAUGAAGUAAGCAUCAGAAGGCACAUAUG [Mat - Mod of Hyphema D30] (puzzle: Exclusion 1)”, under setting [1], the “apparent KD of MS2 coat protein” value is 235 nM.
As to “UUUUAACAUGAGGAUCACCCAUGUGAGGAUAUCGAAAUUUAUAUUUAUAUUUAUAUAACGAGAAGGCACAUUUU [JMF 95] (puzzle: Exclusion 1)”, the “apparent KD of MS2 coat protein” value under setting [1] turned out to be 68.3 nM.
As for “GCACGGAGUGUAGGAUAUCUGUGCGAUUAGCUCAGAGAAGGACAUGAGGAUCACCCAUGUGUGUUCCAAACACAAAAUCCGUGC [Eli exng1 - 065] (Eterna round: R96, puzzle: Exclusion NG 1)”, the “apparent KD of MS2 coat protein” value (input ligand: FMN 200 uM) was 47.2 nM, the “apparent KD of MS2 coat protein” value under setting [4] was found to be 12.8 nM and the “apparent KD of MS2 coat protein” value (input ligand: none) turned out to be 18 nM.
Consider “UUGUGGGUACGAAGGUGUAGUUUGAGCGUACGUUCUGUAACAUGAGGAUCACCCAUGUCGCUUUUUGCUCGUCUUAU [JR_SV3TOV2_Sub036] (puzzle: Sensor v3, turn-off variant 2)”, for which the “apparent KD of MS2 coat protein” value under setting [2] came out at 24.7 nM, the “apparent KD of MS2 coat protein” value under setting [1] came out at 68.2 nM and the “apparent KD of MS2 coat protein” value under setting [3] was 24.8 nM.
As to “ACAAGCUUUGAUAUCCUUAACAUGAGGAUCACCCAUGUUCGUCUUAUGAUGGUCUGAUCCCUGAGGAUCGGACCGUU [JL-sv1-2.08 Brourd Mod] (puzzle: Sensor v3, turn-off variant 1)”, the “apparent KD of MS2 coat protein” value is 33.7 nM under setting [2], 96.2 nM under setting [1] and 35.5 nM under setting [3].
Turning to “AAAGAACUAGGAUAUACAUGAGGAUCACCCAUGUGCAGCUUAACGGCUCACACCUUAUGUAGAAGGAGUGACCG [Riorenar] (puzzle: Exclusion 3)”, the “apparent KD of MS2 coat protein” value under setting [1] stood at 16 nM.
For the sequence “UGCAUGCUAGGAUAUACGGGACAUUAGGGUUCGUUGUGUGGACAUGAGGAUCACCCAUGUAGAAGGAGCGUGCU [Mod of JL-ex2-2.15 mat747 mod] (puzzle: Exclusion 2)”, the “apparent KD of MS2 coat protein” value under setting [1] worked out at 69.3 nM.
With “AAGAGUGCAGGAUAUACUUGUUAGGACGGUUGGAUGAUUUGACAUGAGGAUCACCCAUGUAGAAGGGCAGAGAG [JR_Exclu2_Sub052] (puzzle: Exclusion 2)”, the “apparent KD of MS2 coat protein” value under setting [1] is 126 nM.
As for “CUUUUGUGAGGAUAUUGGUAGUAAAUAAAUAAAAUUAUUACCGAGAAGGCACAUGAGGAUCACCCAUGUUCCUC [Salish 062 v17] (Eterna round: R97, puzzle: Exclusion 4)”, the “apparent KD of MS2 coat protein” value turned out to be 823 nM (input ligand: FMN 200 uM) and 50.7 nM (input ligand: none).
The matching figures for “GACACGGAUGUCAGGAUAUGCAAAUGGCAUCGUUCGCAGAAGGGACAUGAGGAUCACCCAUGUAAAAGUGGACC [Onsorelama] (Eterna round: R97, puzzle: Brourd's mod of Exclusion 4)”: 109 nM and 114 nM.
As for “AAGAAGUGAGGAUAUCACCCUGCGCUACAGUUGCGCAGGCAUGAGAAGGCACUUGAGGAUCACCCAAGUCCUAU [Bitiri] (Eterna round: R97, puzzle: Exclusion 4)”, the “apparent KD of MS2 coat protein” value stood at 212 nM (input ligand: FMN 200 uM) and 23.6 nM (input ligand: none).
In the case of “UUUUACAUGCUGAGAUCCUACAUGAGGAUCACCCAUGUGGUCCGGUGACUUUUGUCACCGGACUUAGCUCGUCUUGU [salish99_S_TOV1_R5_100] (Eterna round: R97, puzzle: Sensor, turn-off variant 1)”, the “apparent KD of MS2 coat protein” value is 191 nM (input ligand: FMN 200 uM) and 288 nM (input ligand: none).
For the sequence “UAAUAUCUGUAGGAUAUCAGUGGAAAACACGUAUGAGAAGGGCAGACAUGAGGAUCACCCAUGUAUAGGGUCCG [BotMod 7 - Jieux - Exclusion 6] (Eterna round: R97, puzzle: Exclusion 6)”, the “apparent KD of MS2 coat protein” value is, setting by setting: (input ligand: FMN 200 uM) 61.9 nM; (input ligand: none) 20.9 nM.
Regarding “AAAAUAACAUGAGGAUCACCCAUGUAAUUGGGUAGUCCGAGCGAGGAUAUCCUCGCCGGAAAAGAGGAGAAGGCGCAAUGAAAG [Usxeeran] (Eterna round: R96, puzzle: Exclusion NG 3)”, the “apparent KD of MS2 coat protein” value amounted to 882 nM (input ligand: FMN 200 uM), 424 nM under setting [4] and 509 nM (input ligand: none).
As for “GUCAUCAAUCAUGGGAUAAACAUGAGGAUCACCCAUGUAUACAAGUUUUUUGCUCGUCUUAUAAUAAGAUUGAUGAC [Antenna 5 - Jieux - Sensor, turn-off variant 1] (Eterna round: R97, puzzle: Sensor, turn-off variant 1)”, the “apparent KD of MS2 coat protein” value reads like this: (input ligand: FMN 200 uM) 13.7 nM; (input ligand: none) 15.9 nM.
Turning to “UCGCAAGCCAUUCCUACUCACAUGAGGAUCACCCAUGUCCUCAGGUUCGUCGUGUCUCUCUGCAAACACUUGCAGAG [Eternabot (L2) Solution 7] (Eterna round: R97, puzzle: Sensor, turn-off variant 1)”, the “apparent KD of MS2 coat protein” value is, setting by setting: (input ligand: FMN 200 uM) 145 nM; (input ligand: none) 762 nM.
“UACAUGAGGAUCACCCAUGUUUUGUCGUGUAUGGUAUUUAUCUAGGAUAUCACUUUAUUUAUUUAUGAGAAGGAGAAUAUUAAU [JMF's solution 8] (Eterna round: R96, puzzle: Exclusion NG 3)”: the “apparent KD of MS2 coat protein” value reads like this: (input ligand: FMN 200 uM) 34.2 nM; under setting [4], 27.1 nM; (input ligand: none) 37.9 nM.
